According to patent US20220064275A1 (SCHOLAR ROCK, published 2022):

Tests used:
[1] = target: T1, human LTBP1-proTGFβ1 complex (human, UniProt Q14766 873-1507); assay: MSD-SET solution equilibrium titration; Ab6 titrated against biotinylated hLTBP1-proTGFβ1, readout % free antigen
T1 construct: range 873-1507; biotinylated in Octet and MSD-SET; also called hLTBP1-proTGFβ1; hLTBP1
Method: (§1) MSD-SET assays were performed to measure affinities of the antibodies at equilibrium. Briefly, each test antibody was diluted 3-5 fold and samples were mixed with biotinylated antigen in a 48-well dish. The SET samples were equilibrated for 20-24 hours at room temperature. Meanwhile, a capture plate was coated with IgG (20 nM) and incubated overnight at 4° C. or 30 minutes at room temperature, followed by a blocking step with 5% BSA. After the capture plate was washed three times, SET samples were added and incubated for 150 seconds. The plate was washed once to remove unbound complexes. 250 ng/ml SA-Sulfotag was added then washed 3 times. 2× Read Buffer was added, and signals from the labeled bound complexes were read with the use of QuickPlex™ SQ 120 instrument.
(§2) As an example, MSD standard plates (MSD) were coated with a 20 nM solution of monoclonal antibody in PBS for 30 min at room temperature or overnight at 4° C. […] After 20-24 hours of equilibration, the antibody-coated plate was blocked with Blocking Buffer A (MSD) for 30 minutes at room temperature and washed with wash buffer (PBS, 0.1% BSA, 0.05% Tween-20) before adding the equilibrated antibody-antigen complexes to the plate for exactly 2.5 minutes. […] After washing with wash buffer, plates were read in MSD read buffer (MSD) using the MESO QuickPlex SQ 120 (MSD). […]

[2] = target: T2, human GARP-proTGFβ1 complex (human, UniProt Q14392 20-627; P01137 30-390); assay: MSD-SET solution equilibrium titration; Ab6 titrated against biotinylated hGARP-proTGFβ1, readout % free antigen
T2 construct: also called hGARP-proTGFβ1; hGARP
Method: as §1, §2

[3] = target: T3, cynomolgus LTBP1-proTGFβ1 complex (cynomolgus monkey); assay: MSD-SET, solution equilibrium titration
T3 construct: also called Cyno LTBP1-proTGFβ1
Method: as §1
(§3) As an example, MSD standard plates (MSD) were coated with a 20 nM solution of monoclonal antibody in PBS for 30 min at room temperature or overnight at 4° C. […] After 20-24 hours of equilibration, the antibody-coated plate was blocked with Blocking Buffer A (MSD) for 30 minutes at room temperature and washed with wash buffer (PBS, 0.1% BSA, 0.05% Tween-20) before adding the equilibrated antibody-antigen complexes to the plate for exactly 2.5 minutes. The plate was washed again with wash buffer before adding 250 ng/ml SULFO-TAG-labeled streptavidin secondary reagent (MSD) in PBS with 0.1% BSA. After washing with wash buffer, plates were read in MSD read buffer (MSD) using the MESO QuickPlex SQ 120 (MSD). The binding data were processed by nonlinear curve fitting in Prism 7 software (Graphpad) to calculate equilibrium binding KD values.

[4] = target: T4, human LTBP3-proTGFβ1 complex (human, UniProt Q9NS15 866-1039); assay: MSD-SET, solution equilibrium titration
T4 construct: range 866-1039; also called hLTBP3-proTGFβ1; hLTBP3
Method: as §1, §3

[5] = target: T2, human GARP-proTGFβ1 complex; assay: BLI (Octet)
[6] = target: T4, human LTBP3-proTGFβ1 complex; assay: BLI (Octet)
[7] = target: T5, human LRRC33-proTGFβ1 complex (human, UniProt Q86YC3 19-650; P01137 30-390); assay: BLI (Octet)
T5 construct: also called hLRRC33-proTGFβ1; hLRRC33

[8] = target: T1, human LTBP1-proTGFβ1 complex; assay: BLI (Octet)
[9] = target: T6, human mature TGFβ2 growth factor (human, UniProt P61812 303-414); assay: in vitro binding assay (BLI protocol at p-1008)
T6 construct: mature
T6 sequence (looked up): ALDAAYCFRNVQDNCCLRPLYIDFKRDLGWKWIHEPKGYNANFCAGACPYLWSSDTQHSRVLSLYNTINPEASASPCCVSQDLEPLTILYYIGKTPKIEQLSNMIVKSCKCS
Method: (§4) AR2G biosensors were first allowed to hydrate in water offline for at least 10 minutes before initiation of the experiment. Upon initiation of the experiment, AR2G tips were equilibrated in water for 1 minute. Then, the tips were moved into a freshly prepared activation solution (18 parts water, 1 part 400 mM EDC (1-Ethyl-3-[3-dimethylaminopropyl] carbodiimide hydrochloride), and 1 part 200 mM sulfo-NHS (N-hydroxysulfosuccinimide)) for 5 minutes. Recombinant TGFβ protein (10 ug/mL in 10 mM sodium acetate buffer pH 5) was coupled to the activated tips for 3 minutes before quenching with ethanolamine pH 8.5 for 15 minutes. […] Finally, a ten minute dissociation was performed.

[10] = target: T7, human mature TGFβ3 growth factor (human, UniProt P10600 301-412); assay: in vitro binding assay (BLI protocol at p-1008)
T7 construct: mature
T7 sequence (looked up): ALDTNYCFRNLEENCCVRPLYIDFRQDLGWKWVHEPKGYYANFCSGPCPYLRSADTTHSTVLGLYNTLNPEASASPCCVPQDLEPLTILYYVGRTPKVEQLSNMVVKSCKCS
Method: as §4

[11] = target: T5, human LRRC33-proTGFβ1 complex; assay: MSD-SET solution equilibrium titration; Ab6 titrated against biotinylated hLRRC33-proTGFβ1, readout % free antigen
Method: as §1, §2

[12] = target: T2, human GARP-proTGFβ1 complex; assay: MSD-SET, solution equilibrium titration
Method: as §1

[13] = target: T4, human LTBP3-proTGFβ1 complex; assay: MSD-SET, solution equilibrium titration; remark: listed apart in the source
Method: as §1

[14] = target: T5, human LRRC33-proTGFβ1 complex; assay: MSD-SET, solution equilibrium titration
Method: as §1

[15] = target: T1, human LTBP1-proTGFβ1 complex; assay: MSD-SET, solution equilibrium titration
Method: as §1

[16] = target: hLTBP3-proTGFβ1 complex made by transfected cells (cell-based potency assay) (human, UniProt Q9NS15 44-1303; P01137 30-390); assay: cell-based or functional assay
[17] = target: hLRRC33-proTGFβ1 complex on cells (human, UniProt Q86YC3 19-692; P01137 30-390); assay: cell-based or functional assay
[18] = target: hGARP-proTGFβ1 complex on cells (human, UniProt Q14392 20-662; P01137 30-390); assay: cell-based or functional assay
[19] = target: hLTBP1-proTGFβ1 complex made by transfected cells (cell-based potency assay) (human, UniProt Q14766 347-1721; P01137 30-390); assay: cell-based or functional assay

T2 sequence (Q14392 20-627, chain 1 of 2): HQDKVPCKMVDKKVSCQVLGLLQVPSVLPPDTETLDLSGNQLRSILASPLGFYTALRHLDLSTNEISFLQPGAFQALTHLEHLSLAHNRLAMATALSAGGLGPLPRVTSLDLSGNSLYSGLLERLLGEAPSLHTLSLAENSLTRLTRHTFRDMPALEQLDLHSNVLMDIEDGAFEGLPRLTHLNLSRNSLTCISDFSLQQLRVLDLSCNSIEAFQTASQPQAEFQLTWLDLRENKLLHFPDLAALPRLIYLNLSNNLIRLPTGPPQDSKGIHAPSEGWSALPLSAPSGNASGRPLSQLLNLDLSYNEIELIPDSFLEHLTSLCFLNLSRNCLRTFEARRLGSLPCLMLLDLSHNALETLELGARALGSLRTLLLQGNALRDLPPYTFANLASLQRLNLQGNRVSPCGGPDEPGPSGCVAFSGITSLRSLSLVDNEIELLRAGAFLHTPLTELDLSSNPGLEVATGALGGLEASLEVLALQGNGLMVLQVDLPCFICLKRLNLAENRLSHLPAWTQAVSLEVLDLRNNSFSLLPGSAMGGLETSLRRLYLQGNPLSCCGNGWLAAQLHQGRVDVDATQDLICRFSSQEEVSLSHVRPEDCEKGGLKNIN
T2 sequence (P01137 30-390, chain 2 of 2): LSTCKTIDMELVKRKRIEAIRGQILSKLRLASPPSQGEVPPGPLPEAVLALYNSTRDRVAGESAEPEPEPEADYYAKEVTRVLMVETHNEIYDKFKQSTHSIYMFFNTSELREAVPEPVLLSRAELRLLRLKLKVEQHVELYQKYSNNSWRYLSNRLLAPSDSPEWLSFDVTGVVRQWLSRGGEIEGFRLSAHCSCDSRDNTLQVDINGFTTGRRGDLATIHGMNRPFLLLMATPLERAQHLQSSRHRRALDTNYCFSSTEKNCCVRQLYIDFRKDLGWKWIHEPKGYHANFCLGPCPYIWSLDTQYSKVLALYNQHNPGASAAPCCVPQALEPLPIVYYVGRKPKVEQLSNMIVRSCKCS
T4 sequence (Q9NS15 866-1039 limits assumed, chain 1 of 2): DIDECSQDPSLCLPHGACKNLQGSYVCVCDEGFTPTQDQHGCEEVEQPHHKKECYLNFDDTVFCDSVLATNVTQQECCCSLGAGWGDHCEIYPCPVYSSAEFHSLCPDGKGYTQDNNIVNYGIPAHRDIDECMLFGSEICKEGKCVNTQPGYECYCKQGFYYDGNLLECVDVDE
T4 sequence (chain, as listed by the source limits assumed, chain 2 of 2): as the sequence (P01137 30-390, chain 2 of 2) above
T5 sequence (Q86YC3 other isoform, or with tags, fused parts or gaps limits assumed, chain 1 of 2): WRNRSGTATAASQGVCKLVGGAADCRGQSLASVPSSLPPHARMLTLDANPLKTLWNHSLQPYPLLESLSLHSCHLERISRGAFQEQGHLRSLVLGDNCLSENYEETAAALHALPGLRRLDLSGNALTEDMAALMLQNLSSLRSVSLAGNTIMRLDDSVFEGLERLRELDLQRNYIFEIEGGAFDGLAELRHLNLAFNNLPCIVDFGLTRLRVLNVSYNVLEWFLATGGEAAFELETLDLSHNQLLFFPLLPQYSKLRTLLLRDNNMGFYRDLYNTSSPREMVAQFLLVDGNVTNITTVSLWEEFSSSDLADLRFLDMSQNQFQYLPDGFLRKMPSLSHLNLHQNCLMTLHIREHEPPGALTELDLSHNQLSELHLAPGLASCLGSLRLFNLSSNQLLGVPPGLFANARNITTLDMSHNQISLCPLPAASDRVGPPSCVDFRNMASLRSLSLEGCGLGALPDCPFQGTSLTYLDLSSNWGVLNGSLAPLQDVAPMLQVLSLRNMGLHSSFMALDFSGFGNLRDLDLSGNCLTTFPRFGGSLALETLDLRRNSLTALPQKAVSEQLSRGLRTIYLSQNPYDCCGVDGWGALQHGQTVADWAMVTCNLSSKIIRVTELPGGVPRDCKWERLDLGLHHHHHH
T5 sequence (P01137 30-390 limits assumed, chain 2 of 2): as the sequence (P01137 30-390, chain 2 of 2) above
T1 sequence (Q14766 873-1507 limits assumed, chain 1 of 2): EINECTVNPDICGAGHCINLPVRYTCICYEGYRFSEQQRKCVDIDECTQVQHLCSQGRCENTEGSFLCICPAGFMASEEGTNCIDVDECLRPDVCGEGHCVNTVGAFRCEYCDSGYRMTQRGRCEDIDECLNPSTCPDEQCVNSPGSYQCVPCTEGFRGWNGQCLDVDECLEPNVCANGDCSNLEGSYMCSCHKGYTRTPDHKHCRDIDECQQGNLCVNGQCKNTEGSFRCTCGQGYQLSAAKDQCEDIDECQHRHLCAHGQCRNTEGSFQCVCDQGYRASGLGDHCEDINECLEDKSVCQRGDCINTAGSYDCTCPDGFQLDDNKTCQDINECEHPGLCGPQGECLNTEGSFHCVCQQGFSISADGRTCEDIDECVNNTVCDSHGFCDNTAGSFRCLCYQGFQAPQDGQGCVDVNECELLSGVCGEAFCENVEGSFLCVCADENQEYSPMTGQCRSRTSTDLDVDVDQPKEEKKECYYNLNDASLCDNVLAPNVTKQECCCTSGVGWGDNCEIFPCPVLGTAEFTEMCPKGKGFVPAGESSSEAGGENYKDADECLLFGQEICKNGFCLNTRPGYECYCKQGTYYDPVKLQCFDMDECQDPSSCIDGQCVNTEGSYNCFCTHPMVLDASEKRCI
T1 sequence (chain, as listed by the source limits assumed, chain 2 of 2): as the sequence (P01137 30-390, chain 2 of 2) above
T3 sequence (chain, as listed by the source limits assumed, chain 1 of 2): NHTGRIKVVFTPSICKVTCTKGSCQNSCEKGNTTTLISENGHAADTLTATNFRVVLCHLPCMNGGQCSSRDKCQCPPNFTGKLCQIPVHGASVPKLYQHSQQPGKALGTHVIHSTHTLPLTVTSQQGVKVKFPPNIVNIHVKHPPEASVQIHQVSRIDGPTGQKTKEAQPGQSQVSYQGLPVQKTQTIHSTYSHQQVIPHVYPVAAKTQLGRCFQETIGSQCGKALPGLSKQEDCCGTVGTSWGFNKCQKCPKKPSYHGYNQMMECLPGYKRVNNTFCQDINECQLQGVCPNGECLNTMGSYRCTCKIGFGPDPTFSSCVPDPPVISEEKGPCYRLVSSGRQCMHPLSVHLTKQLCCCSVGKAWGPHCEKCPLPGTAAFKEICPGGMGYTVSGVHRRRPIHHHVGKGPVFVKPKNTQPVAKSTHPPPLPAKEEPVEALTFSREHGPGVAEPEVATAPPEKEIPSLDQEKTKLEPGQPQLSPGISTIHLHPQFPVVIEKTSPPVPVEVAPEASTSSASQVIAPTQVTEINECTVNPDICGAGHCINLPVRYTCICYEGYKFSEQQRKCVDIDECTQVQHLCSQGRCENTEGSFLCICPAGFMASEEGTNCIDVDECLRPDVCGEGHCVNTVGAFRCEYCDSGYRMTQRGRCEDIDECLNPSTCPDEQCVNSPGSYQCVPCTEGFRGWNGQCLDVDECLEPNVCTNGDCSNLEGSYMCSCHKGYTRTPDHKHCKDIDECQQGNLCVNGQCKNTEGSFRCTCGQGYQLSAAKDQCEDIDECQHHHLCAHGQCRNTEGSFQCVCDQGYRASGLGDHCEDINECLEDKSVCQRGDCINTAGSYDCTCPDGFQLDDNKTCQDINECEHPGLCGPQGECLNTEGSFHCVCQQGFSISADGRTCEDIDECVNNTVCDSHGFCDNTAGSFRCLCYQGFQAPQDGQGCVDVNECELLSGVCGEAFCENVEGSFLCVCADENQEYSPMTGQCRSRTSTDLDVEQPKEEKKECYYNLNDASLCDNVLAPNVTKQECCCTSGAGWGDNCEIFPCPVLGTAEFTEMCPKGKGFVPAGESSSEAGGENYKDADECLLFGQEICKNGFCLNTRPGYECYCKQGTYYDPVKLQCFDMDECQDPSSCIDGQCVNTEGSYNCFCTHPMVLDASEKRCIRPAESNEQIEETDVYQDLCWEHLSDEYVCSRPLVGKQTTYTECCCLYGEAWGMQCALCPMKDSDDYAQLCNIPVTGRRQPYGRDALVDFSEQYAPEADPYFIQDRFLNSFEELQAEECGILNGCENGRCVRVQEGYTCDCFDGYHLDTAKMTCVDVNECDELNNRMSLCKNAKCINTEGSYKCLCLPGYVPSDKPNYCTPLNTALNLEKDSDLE
T3 sequence (chain, as listed by the source limits assumed, chain 2 of 2): as the sequence (P01137 30-390, chain 2 of 2) above, with R199K counted along it
Sequence of hLRRC33-proTGFβ1 complex on cells (Q86YC3 19-692 limits assumed, chain 1 of 2): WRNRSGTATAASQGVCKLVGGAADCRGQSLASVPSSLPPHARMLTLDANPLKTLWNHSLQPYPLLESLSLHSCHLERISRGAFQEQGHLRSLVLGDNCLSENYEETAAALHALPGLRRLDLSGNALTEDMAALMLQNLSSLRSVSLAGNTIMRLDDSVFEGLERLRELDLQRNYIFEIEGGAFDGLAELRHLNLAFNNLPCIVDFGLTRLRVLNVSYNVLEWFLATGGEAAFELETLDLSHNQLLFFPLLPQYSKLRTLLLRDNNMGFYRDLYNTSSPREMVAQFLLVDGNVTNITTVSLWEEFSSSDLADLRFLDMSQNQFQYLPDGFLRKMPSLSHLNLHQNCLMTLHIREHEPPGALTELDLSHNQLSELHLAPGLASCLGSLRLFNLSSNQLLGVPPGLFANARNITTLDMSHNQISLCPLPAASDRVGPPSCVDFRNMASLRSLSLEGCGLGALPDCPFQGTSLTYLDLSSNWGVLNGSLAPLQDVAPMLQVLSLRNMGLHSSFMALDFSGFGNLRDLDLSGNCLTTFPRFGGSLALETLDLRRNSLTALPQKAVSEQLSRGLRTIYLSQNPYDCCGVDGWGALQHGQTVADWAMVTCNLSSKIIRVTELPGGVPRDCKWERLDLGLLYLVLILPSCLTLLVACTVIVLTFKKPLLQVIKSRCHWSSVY
Sequence of hLRRC33-proTGFβ1 complex on cells (P01137 30-390 limits assumed, chain 2 of 2): as the sequence (P01137 30-390, chain 2 of 2) above

B1: Ab6 (antibody, human IgG4 S228P, kappa, V domains shown)
VH: EVQLVESGGGLVQPGGSLRLSCTASGFTFSSFSMDWVRQAPGKGLEWVSYISPSADTIYYADSVKGRFTISRDNAKNTLYLQMNSLRAEDTAVYYCARGVLDYGDMLMPWGQGTLVTVSS
VL: DIQMTQSPSSLSASVGDRVTITCQASQDITNYLNWYQQKPGKAPKLLIYDASNLETGVPSRFSGSGSGTDFTFTISSLQPEDIATYYCQQADNHPPWTFGGGTKVEIKR
- IC50 (read off the curve) [1]: ~0.02 nM
- IC50 (read off the curve) [2]: ~0.03 nM
- Kd [3]: 0.039 nM
- Kd [4]: 0.029 nM
- Kd [5]: 0.404 nM
- Kd [6]: 0.123 nM
- Kd [7]: 0.336 nM
- Kd [8]: 0.207 nM
- binding result [9]: no binding
- binding result [10]: no binding
- IC50 (read off the curve) [11]: ~0.07 nM
- Kd [12]: 0.027 nM
- Kd [13]: 0.029 nM
- Kd [14]: 0.063 nM
- Kd [15]: 0.018 nM
- IC50, reporter cell assay of TGFβ1 activation [16]: 0.821 nM
- IC50, reporter cell assay of TGFβ1 activation [17]: 0.495 nM
- IC50, reporter cell assay of TGFβ1 activation [18]: 0.324 nM
- IC50, reporter cell assay of TGFβ1 activation [19]: 2.74 nM
